First the molecules themselves.
B1: Crk-like protein (Homo sapiens), P46109 (parent)
chain: MSSARFDSSDRSAWYMGPVSRQEAQTRLQGQRHGMFLVRDSSTCPGDYVLSVSENSRVSHYIINSLPNRRFKIGDQEFDHLPALLEFYKIHYLDTTTLIEPAPRYPSPPMGSVSAPNLPTAEDNLEYVRTLYDFPGNDAEDLPFKKGEILVIIEKPEEQWWSARNKDGRVGMIPVPYVEKLVRSSPHGKHGNRNSNSYGIPEPAHAYAQPQTTTPLPAVSGSPGAAITPLPSTQNGPVFAKAIQKRVPCAYDKTALALEVGDIVKVTRMNINGQWEGEVNGRKGLFPFTHVKIFDPQNPDENE

In the first assay the parent is B1. The note with it: with insr_human INSR.
As for H33R;S53P;K72R, the “effect of a mutation on the interaction” value is “decreasing interaction”.

The variants in another assay derive from B1. The settings on record: with insr_human INSR. This is another data set of the same source.
Consider H33R;S53P;K72R, for which the “effect of a mutation on the interaction” value was “decreasing interaction”.

Source of the values: IntAct's records for PubMed 15522217.
